Reference: publication PMC9942873 (Immunity, 2023)

Experiments:
Assay in all cases: ELISA
Conditions in all cases: both partners purified
[1] = target: recombinant full-length Pfs48/45 (Plasmodium falciparum 3D7, UniProt Q8I6T1)
[2] = target: Pfs48/45 D2-3 (Plasmodium falciparum 3D7, UniProt Q8I6T1)
[3] = target: Pfs48/45 D1-2 (Plasmodium falciparum 3D7, UniProt Q8I6T1)

Measured: binding result

Chain of Pfs48/45 D2-3 (Q8I6T1 184-428): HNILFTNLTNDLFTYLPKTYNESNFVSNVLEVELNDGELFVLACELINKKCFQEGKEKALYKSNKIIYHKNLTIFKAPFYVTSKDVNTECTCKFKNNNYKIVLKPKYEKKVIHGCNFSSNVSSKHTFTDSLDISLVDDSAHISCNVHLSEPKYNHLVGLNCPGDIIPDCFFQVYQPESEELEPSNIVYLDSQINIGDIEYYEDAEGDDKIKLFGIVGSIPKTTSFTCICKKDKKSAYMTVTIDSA
Chain of recombinant full-length Pfs48/45 (Q8I6T1 28-428): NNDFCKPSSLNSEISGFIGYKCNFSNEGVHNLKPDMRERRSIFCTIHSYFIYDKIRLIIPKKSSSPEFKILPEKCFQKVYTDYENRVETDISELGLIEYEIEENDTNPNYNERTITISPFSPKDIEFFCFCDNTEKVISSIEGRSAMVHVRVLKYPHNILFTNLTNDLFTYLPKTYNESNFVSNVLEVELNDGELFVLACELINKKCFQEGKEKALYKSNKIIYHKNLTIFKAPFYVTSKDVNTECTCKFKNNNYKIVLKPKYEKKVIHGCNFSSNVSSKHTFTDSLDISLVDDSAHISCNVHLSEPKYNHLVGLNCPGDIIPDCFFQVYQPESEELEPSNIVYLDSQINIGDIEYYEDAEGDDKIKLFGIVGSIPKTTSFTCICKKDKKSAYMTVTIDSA
Chain of Pfs48/45 D1-2 (Q8I6T1 28-289): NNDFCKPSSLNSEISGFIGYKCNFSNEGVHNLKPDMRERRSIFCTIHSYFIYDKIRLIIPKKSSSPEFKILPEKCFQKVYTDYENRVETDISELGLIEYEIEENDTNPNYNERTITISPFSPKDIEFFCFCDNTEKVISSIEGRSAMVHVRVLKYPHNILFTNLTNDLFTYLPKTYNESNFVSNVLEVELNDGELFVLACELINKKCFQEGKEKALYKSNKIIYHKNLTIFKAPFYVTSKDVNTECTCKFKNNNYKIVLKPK

B1: RUPA-104 (antibody, V domains shown)
VH: QVQLVQSGAEVKKPGASVKISCKTSGYTFTNYDINWVRQATGRGLEWMGWINPNTGKTGFAQKFQGRVTMTRSTSISTAYMELSSLRSEDTAVYYCARGVTTPDYFDSWGQGTLVTVSS
VL: DIQMTQSPSSVSASVGDRVSITCRASQDISGWLAWYQQKPGKAPKLLIYAASTLRTGVPSRFSGSGSGTDFTLTISSLQPEDFATYYCLQANSLPVTFGQGTRLEIT
notes: human IgG1; source: recombinant human IgG1, 293T (Protein A purified) or GenScript
binds: all assays above

B2: RUPA-105 (antibody, V domains shown)
VH: QVQLVQSGAEVKKPGASVKVSCTASGYNFLTHDISWVRQATGQGLEWMGWMNPNTGKKGYVQKFQGRVTMDRDMSKSTGYMELRSLTSEDTAVYYCVRGVGSYYGSGGWLDPWGQGTLVIVSS
VL: QSVLTQPPSASETPGQKVTISCSGSSSNIGSDTVSWYVQVPGTAPKLLIYNDNQRPSGVPDRFSGSKSGTSASLAISGLQSEDEADYYCATWDASLKRRVFGGGTTLTVL
notes: as for B1
binds: all assays above

B3: RUPA-108 (antibody, V domains shown)
VH: EVVLVESGGGLIQPGGSLRLSCAASGFTVSSSYMSWVRQAPGKGLEWVSVIYSGAGGGSIYYADSVKGRFTISRDNLKNTLYLQMNSLRVEDAAVYYCVRDSRGWGYFDDWGQGTLVTVSS
VL: EIILTQSPGTLSLSPGERATLSCRASQSIRTNYLAWYQRKPGQTPRLLIYGASSRATGIPDRFSGSGSGTDFTLTISRLEPEDFAEYFCQQYQNSPWTFGQGTIVEIK
notes: as for B1
binds: all assays above

B4: RUPA-111 (antibody, V domains shown)
VH: EVQLVESGGGLVQPGGSLRLSCVVSGFTFSRYSMYWVRQAPGKGPEWVSYIDSTGTTIYYADSVKGRFTISRDNAKSSLSLQMSSLRDDDRGVYYCARDGRKDSGSFLDHWGQGTLVIVSS
VL: DIQMTQSPSTLSASVGDRVTITCRASQSISEWLAWYQQKPGKAPRLLIYQASSLQSGVPSRFSGSGSGTEFTLTISSLQSDDFATYYCQQFDTYWTFGQGTKVEVR
notes: as for B1
binds: all assays above

B5: RUPA-113 (antibody, V domains shown)
VH: QVQLVQSGAELKKPGASVKVSCKASGYTFTSHDITWVRQAPGQGLEWMGWMNPNTGDRGYARNFQGRLTLTRDMSISTAFMVLSSLRPEDTAVYYCTRGVGTYHGAGGWFDPWGQGTLVSVSS
VL: QSVLTQPPSASETPGQRVTISCSGSSSNIGSNIVSWYQQLPGTAPKLLIYNNNQRPSGVPDRFSGSQSGTSASLAISGLQSEDEADYYCATWDDSLERGVFGGGTKLTVL
notes: as for B1
binds: all assays above

B6: RUPA-143 (antibody, V domains shown)
VH: QVQLVQSGAEVKKPGASVKVSCKASASTIANFAVSWVRQAPGQGLEWMGWISVYNVKTGDVKYAPKFQGRVTLTIDTATSTASMELRSLRFDDTAVYYCARANWYDNVWQEYFYGMDVWGQGTTVTVSS
VL: DIQMTQSPLTLSASVGDRVTITCRASQSVSRFLAWYQQKPGKAPKLLMYKVSNLESGVPSRFSGSGFGTQFTLTISSLQPDDFATYYCQHYDAYPWTFGQGTKVEIK
notes: as for B1
binds: all assays above

B7: RUPA-144 (antibody, V domains shown)
VH: QVQLVQSGAEVKKTGASVKVSCKASGYTFTSHDIIWVRQAAGQGLEWMGWMNPNTGKKGYVQKFQGRVMLTRNMSTGTAYMELSSLRSDDSAVYYCARGVGTYYGSEGWLDPWGQGTLVTVSS
VL: QSVLTQPPSASETPGQRVTISCSGSSSNVGSNTVNWYQQLPGTAPKLLMYNTNQRPSGVPDRFSGSKSGTSASLAISGLRSDDEADYYCATWDDSLKRGVFGGGTKLTVL
notes: as for B1
binds: all assays above
